Assay results reported in the supplement of paper PMC9170038.

Test system: K4 kissing-loop RNA reporter
Experiment: apparent KD of K4 kissing-loop reporter; higher = weaker reporter binding
Details: Eterna round: R107
Method: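 RNA-MaP round R107: designed RNA switches with theophylline, tryptophan, arginine or FMN aptamers are transcribed on-chip within common flanks. They are titrated with a labelled K4 kissing-loop RNA reporter in RNA-MaP buffer (100 mM Tris pH 7.5, 80 mM KCl, 4 mM MgCl2), without ligand or with the indicated ligand. Median apparent KD per design.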

[1] = input ligand: theophylline 20 uM
[2] = input ligand: tryptophan 2.4 mM
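Also: bound reporter read as fluorescence of individual clusters on recovered sequencing chips by microscopy, with normalized cluster intensities fitted with a binding model.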

| Sequence | apparent KD of K4 kissing-loop reporter (input ligand: FMN 200 uM) | apparent KD of K4 kissing-loop reporter (input ligand: arginine 13.2 mM) | apparent KD of K4 kissing-loop reporter (input ligand: none) | apparent KD of K4 kissing-loop reporter [1] | apparent KD of K4 kissing-loop reporter [2] |
| --- | --- | --- | --- | --- | --- |
| UCGAUCGCUAGUGAUGUUGGUGUGCUACAUCGAGGACCGGUACGGCCGCCACUCGAGCCCGAGUAGAAGGGUGGGCUGCUAUGAA [theeternabot_sameState_KL_Trp_A_18] | 1510 nM | 1030 nM | 1190 nM | 743 nM | 895 nM |
| AAUAAUAUACAAAGGCGAACGAAUAGGGAAGGAGCGCGAUAUAACGCAGGUAGGUCGCCCAUAUUUUUAGUGAUGUUAGAGAAUA [E. Arginine A Tesla 1] | 938 nM | 762 nM | 766 nM | 920 nM | 757 nM |
| ACACUUUACGUAGGAUAUGCGACGAGUGAUGUUCGUCAGGCGGCUUGAGCUUAAACAGGCCGUCUAGCAGAAGGACGGGCAGUGU [Diorsodi] | 147 nM | 143 nM | 192 nM | 194 nM | 168 nM |
| CAUACGCAUGGAGGAUAUGAGAUUUUUCAUAUUAUUUUUUAUUCUCAGUGAUGUUGGGAUUUAUAAUCAGAAGGCCAUGUGUAUG [Ex FMN B 11] | 88.4 nM | 79.2 nM | 84.9 nM | 94.7 nM | 88.9 nM |
| GUAUGUGGAAACACGUACUUAUAUCCUAGGCAGGAUAUGCGGAAACGCAGAAGGGCCACCGGCGAGUUUAUCCAGUGAUGUUGGA [Ex FMN A 8] | 251 nM | 253 nM | 294 nM | 271 nM | 245 nM |
| UGACAUUGCUCAGAUACCAGACAUGAGCAUCAGCCAUGUGCCAAAACGUACUAAAUAAAUGUCCCUUGGCAGCUGAGCAAUGUCU [TheoBX 13] | 65 nM | 26.3 nM | 40.7 nM | 73.3 nM | 61.3 nM |
| UUUUAUAACCGAAGGAGCGCGUGGGCGCAGUGAUGUUGCGCCCGACAUCACUUCAACUUAACGCAGGUAGGUCGCGGUUUUAAUG [Arginine B (Excl) V3] | 148 nM | 147 nM | 181 nM | 163 nM | 168 nM |
| GACGUGCGAGAGACCGCUCUACCUUGAGAUCGAGGACCGGUACGGCCGCCACUCGGUGUUUAACGUCGAUCCCAGUGAUGUUGGA [theeternabot_sameState_KL_Trp_A_21] | 521 nM | 230 nM | 429 nM | 450 nM | 234 nM |
| UACGCCACAGACGUGGAGUACCUUGGGUCGAAGGAUAUCAGCAUUGUGAGAAGGUCGCCGAUUCUAAGUGAUGUUUAGAUCAGGG [theeternabot_sameState_KL_FMN_A_2] | 132 nM | 275 nM | 446 nM | 567 nM | 409 nM |
| AACGUUUUGAGAAGGAGCGCGUUAAGCAGUGAUGUUGCUUUAUUUUAUCAAAUACAUAUAUCGCAGGUAGGUCGCUCAAUACGUA [JR_Nu_SSArginiB_Sub026] | 304 nM | 218 nM | 253 nM | 283 nM | 230 nM |
| CGGAGUCGCGGAAGGAGCGCUCGAUAGACAAGUUGAUCGUGCCGUGGUCGAGUGAUGUUCGAGCAGGUAGGUCGCCGUCGGUCCC [Cexeatedma] | 252 nM | 204 nM | 242 nM | 229 nM | 230 nM |
| UUAUAUAUAUCAGAUACCAGCAUAAUGGAAACAAAUUAUGUUAUGAGUGAUGUUCAUGUAUGCCCUUGGCAGCUGGUAUGGGUUU [KL-XTheo-B19] | 467 nM | 412 nM | 433 nM | 487 nM | 363 nM |
| GAGGUAUGCGCAGUGAUGUUGCGACGAGAUACCAGUCGUUCUGUCGACCCUUGGCAGCUCCCACCAGACGUACGAGUUUGUGUUG [theeternabot_sameState_KL_Theo_A_10] | 114 nM | 111 nM | 113 nM | 113 nM | 99.5 nM |
| GUUUGCCGGUCCCGGAGUGAUGUUCCGGAUACCAGCAACUUCCUUUGCCCUUGGCAGCCGUAGCUAUACCGGGUGGCAGCUUCAG [Anresoenus] | 111 nM | 89.5 nM | 104 nM | 110 nM | 111 nM |
| AGACUACCACACUGUCAAUAGACAGUGGACUAGGAUAUGCUGAUAAGCAGAAGGAGUGAUGUUCCUCGGUAGUCAAUAAAAUAAU [FmnAX 13 G28+C67] | 323 nM | 318 nM | 286 nM | 489 nM | 273 nM |
| CGCCAGGGUGAAGGAUAUCCGUCUGAUUGAGCGCAGUGAUGUUGCGCGAUUCGUUCAUCGCUCGGAGGAGAAGGUCAGAUAACUC [theeternabot_sameState_KL_FMN_B_3] | 127 nM | 121 nM | 121 nM | 121 nM | 112 nM |
| CUGUCAUGGGAUGGGCCAGUGAUGUUGGGCCGAGGACCGGUACGGCCGCCACUCGUAGCACAGUGCGCGCUAGCAUUGUACGUCA [theeternabot_exclusion_KL_Trp_A_35] | 1260 nM | 629 nM | 977 nM | 808 nM | 456 nM |
| CCGUGGAGUGAUGUUCCACGUUCUACGGAUACCAGCCACGCCAGCGGCCCUUGGCAGCCGCACCUUGCAGUGAUGUUGUGAGGCU [Same State Theophylline A GF 5] | 365 nM | 312 nM | 349 nM | 330 nM | 302 nM |
| GCCUUUUUUCGAGCUACAGCUCGAUUUGGUCGAGGACCGGUACGGCCGCCACUCGAAUGAUAGUGAUGUUAUCAUUAUGGCAUAA [JR_ExcTryptoA_Sub023] | 196 nM | 166 nM | 176 nM | 186 nM | 152 nM |
| UUUUGGUACUGAGGAUAUUCGACGAAAUAUAGUGAUGUUAUAUAAGGAGGAGGAGGGUGGGAGGAAGGAGAAGGCAGAAGAGGAG [#06 K4 FMN B Exclusion] | 285 nM | 179 nM | 238 nM | 285 nM | 185 nM |
| GCUAUGGUUGGAAGGAGCGUUGAAUUGUUGGUAAGAGUGAUGUUCGAUAGUGGAUAGUUGUAGCAGGUAGGUCGCCAACUAUAGC [KL-Arg B27] | 377 nM | 367 nM | 532 nM | 517 nM | 395 nM |
| UGAUACCAGACGGCCGCCACUGCACCAGUCAAUGACUGAGUGUGGUAAUGCUCAGUGAUGUUGAGUAGGACCGGGUCUGGUAUCU [Mod of Eli's TrypBX 8 v2] | 135 nM | 124 nM | 131 nM | 114 nM | 124 nM |

| Sequence | apparent KD of K4 kissing-loop reporter (input ligand: FMN 200 uM) | apparent KD of K4 kissing-loop reporter (input ligand: arginine 13.2 mM) | apparent KD of K4 kissing-loop reporter (input ligand: none) | apparent KD of K4 kissing-loop reporter [1] | apparent KD of K4 kissing-loop reporter [2] |
| --- | --- | --- | --- | --- | --- |
| AGUGUUUGGUUAGAUACCAGCCGUCUGUGGAUAAUCCUCAGACCGCCAGUGAUGUUGGCAGGCCCUUGGCAGCUAACAGGACAGA [Ersoed] | 198 nM | 213 nM | 275 nM | 233 nM | 224 nM |
| AGGCACGAGCAAGGAUAUUGAGUAGAGUGAUGUUCUGCCUGGGUUGGCUCGAAAGAGCCUUCUCAGCGAGAAGGUGCUCGUGCCU [#2 Same State - FMN A Attempt #22 (HarryS)] | 290 nM | 603 nM | 616 nM | 367 nM | 719 nM |
| AAAGUGUCAGCACGAGUGAUGUUCGACGAUACCAGCCUCGAUAGAGGCCCUUGGCAGCGUAAAAGUCAAGGGCUGGCACAUAAAA [#SwitchBubble 5 #K4Early] | 789 nM | 751 nM | 1300 nM | 494 nM | 1440 nM |
| AGUAAUAUCACGGCCGCCACUGAUUAUUGUUUUUAUAGUUAUAAAUCUUGCCAGUGAUGUUGGUUCAGGACCGGGUGAGUUAAUA [JR_SSTryptoB_Sub001] | 429 nM | 469 nM | 584 nM | 727 nM | 299 nM |
| UUGAGACGUCAAGGAUAUUCCGCGGAAGGGCGAGCGACCCAAGUGUGAGUGAUGUUCAGCAAGCCGGAAGAAGGUGAAUUUCACC [theeternabot_sameState_KL_FMN_B_26] | 799 nM | 628 nM | 958 nM | 1050 nM | 937 nM |
| CUCGAGUGAUGUUCGAUUAUUUAUACAGAUACCAGUGAAUUUUAACACCCUUGGCAGCUGGUAGUAUCGUUGUAAUUUACACAAG [JR_ExcTheophyA_Sub004] | 99.8 nM | 163 nM | 116 nM | 168 nM | 87.9 nM |
| UCGACUGUGUCGGCCGCCACUGGUAUAAACGGACUAUAACGACAUGAGUGAUGUUCAUGUUCGUCUAGGACCGGGACACAAUGUA [Tryp B Ex t3] | 102 nM | 81.8 nM | 96.7 nM | 81.7 nM | 90 nM |
| GGUGACAACCAGAGGUGAUGUAUAGAAUCGCGAGGACCGGUACGGCCGCCACUCGUGAAGAGAAAGGAGUGAUGUUCCGUAAUGG [Kazoo C6] | 271 nM | 249 nM | 282 nM | 364 nM | 124 nM |
| UGGGCCGCCUGAGGAUAUAGAGACGAGUGAUGUUCGUGGAUAAGAGCCAGUGAUGUUGGGUUAUUUCUAGAAGGCGGGCGAACUU [Exclusion FMN B GF9] | 144 nM | 95.1 nM | 98.6 nM | 164 nM | 131 nM |
| CAUUAAACUCAAACUAUUGGGUUUACGUUCCGAGGACCGGUACGGCCGCCACUCGGUCGAUGCUAUACCAUACGAGUGAUGUUCG [theeternabot_sameState_KL_Trp_A_1] | 465 nM | 452 nM | 502 nM | 404 nM | 352 nM |
| GCCGCCGCGGCAGGAUAUAGACAUUGAGUGAUGUUCGGUGCUUAUCCAAAGUGCUGUUUCGGCCAACUAGAAGGGCCGCGGCGGC | 204 nM | 94 nM | 119 nM | 103 nM | 119 nM |
| GGCCGCAAGGCGAGCGCUCCCACUCCGGAAGGAGCGCCCGGAAGGGCAGGUAGGUCGCCGGAGUGAUGUUCCGGUGGAGGGCUCG [#2 Exclusion - Arginine A Attempt #18 (Inspired by Omei)] | 435 nM | 319 nM | 417 nM | 772 nM | 469 nM |
| GUGUAACGAGGAAACCUCGUUACACCCUCACGAGGACCGGUACGGCCGCCACUCGAGAGCUCGUGAGGAGUGAUGUUCCUCGUGA | 695 nM | 335 nM | 441 nM | 435 nM | 184 nM |
| AGUGAUAUAUGAGGAUAUGGGAUUGUUAAUGAGUUAGUUUUAGUGUUGUUUGGUUAGUGAUGUUAUUUAGAAGGCGUGAGUGAUG [kuktrmullin] | 93.6 nM | 87.4 nM | 96 nM | 116 nM | 70.4 nM |
| GCUGUCCAGUUCGAUACCAGAGUUAUCGCACUGUAGUGAUAAAGUGAUGUUUUAUCAGUCCUCCCUUGGCAGCGAUGCCCGGCUG [theeternabot_exclusion_KL_Theo_B_25] | 164 nM | 151 nM | 166 nM | 165 nM | 154 nM |
| AAAUAAAGCAGUCACCCAGUGAUGUUGGAAGGAGCGUGCGAAAGCACAGGUAGGUCGCCGAUAGGACAAAGUCCAAGUGGCUGCA [#SwitchBubble 30 #K4Early] | 625 nM | 437 nM | 487 nM | 297 nM | 318 nM |
| AAAAUAAUCCAGUGAUGUUGGUAUUCAGAUACCAGCGACGAAAGUCGCCCUUGGCAGCUGUGGACGUACAAAAUAAGUACGUCCU | 967 nM | 657 nM | 1060 nM | 944 nM | 660 nM |
| AAAAGAAAGUCGGCCGCCACUCAACGCAGUGAUGUUGCAAGACAGAAGACCAGUGAUGUUGGCCAGAGGACCGGGACAAAAGGCC [Same State Typtophan B GF 4] | 591 nM | 945 nM | 842 nM | 435 nM | 464 nM |
| CCGAAGAACCAGUGAUGUUGGUUGACUAGACAGGAUAUGAGCAACAUCAGAAGGGUCUGGCUUCGGGAGUGGGUUGCGCUGACCU [Onbizaes] | 283 nM | 259 nM | 616 nM | 296 nM | 576 nM |
| GGAGAGGUCUUGUUUGGAUGUGUUUAAUGGCGAGGACCGGUACGGCCGCCACUCGGGUGAUGUUAGUGAUGUUGAUGUAGUGAUG [wzwmullin] | 103 nM | 76.1 nM | 93.4 nM | 149 nM | 89.5 nM |
| AAAUUUGCUCAUGAUACCAGCCAGUGAUGUUGGUUGGUCCACCGUGUCCGAACAUUAAGCGGCCCUUGGCAGCAUGAUGCGCGUA [Ininveaen] | 129 nM | 105 nM | 116 nM | 143 nM | 112 nM |
